Reference: article PMC6699081, “Development and application of a transcriptional sensor for detection of heterologous acrylic acid production in E. coli” (Microbial Cell Factories, 2019)

Columns and labels:
C=CC(N)=O [1] = assay: purified protein; conditions: 20 mM potassium phosphate pH 7.2, 150 mM NaCl, 2 mM DTT, 37 °C, 15 nM enzyme, 20 min
C=CC(N)=O [2] = tested on: T1, C=CC(N)=O; assay: purified protein; type: biochemical, Bacillus sp. (in: firmicutes); conditions: 20 mM potassium phosphate pH 7.2, 150 mM NaCl, 2 mM DTT, 37 °C, 15 nM enzyme, 20 min
T1 construct: C-terminal 6xHis tag, expressed in E. coli BL21(DE3), His-GraviTrap purified; catalytic triad E59, K134, C166

| Substance | Km (C=CC(N)=O [1]) [mM] | Vmax (C=CC(N)=O [1]) [µM/min] | kcat (C=CC(N)=O [1]) [s⁻¹] | kcat/Km (C=CC(N)=O [1]) [M⁻¹ s⁻¹] | Km (C=CC(N)=O [2]) [mM] | Vmax (C=CC(N)=O [2]) [µM/min] | kcat (C=CC(N)=O [2]) [s⁻¹] | kcat/Km (C=CC(N)=O [2]) [M⁻¹ s⁻¹] |
| --- | --- | --- | --- | --- | --- | --- | --- | --- |
| RAPc8 amidase (Bacillus sp. (in: firmicutes); M203V) | 7.2 ± 1.1 | 147 | 163 ± 18.6 | 22900 ± 1170 |  |  |  |  |
| RAPc8 amidase (Bacillus sp. (in: firmicutes); A77T/M203V) | 4.6 ± 0.4 | 64.7 | 71.9 ± 5.14 | 15600 ± 598 |  |  |  |  |
| RAPc8 amidase (Bacillus sp. (in: firmicutes)) |  |  |  |  | 7.3 ± 0.1 | 106 | 118 ± 6.75 | 16300 ± 1060 |
| RAPc8 amidase (Bacillus sp. (in: firmicutes); A77T/D294N/K342E/M203V/M45L) | 7.4 ± 1.3 | 176 | 196 ± 17.9 | 26800 ± 2390 |  |  |  |  |
| RAPc8 amidase (Bacillus sp. (in: firmicutes); A77T) | 4.5 ± 0.2 | 66.7 | 74.1 ± 2.32 | 16600 ± 357 |  |  |  |  |
